In patent US20260144882A1 (BIO THERA SOLUTIONS, published 2026):
Where “and” joins values, the source holds several entries; their conditions need not be identical. Equal values may be shown once. Read-outs that look alike come from different tables or passages of the source.

T1: human Nectin-4 extracellular antigen hNectin-4-His (human, UniProt Q96NY8 32-349)
T1 construct: C-terminal 8xHis tag included
T1 sequence: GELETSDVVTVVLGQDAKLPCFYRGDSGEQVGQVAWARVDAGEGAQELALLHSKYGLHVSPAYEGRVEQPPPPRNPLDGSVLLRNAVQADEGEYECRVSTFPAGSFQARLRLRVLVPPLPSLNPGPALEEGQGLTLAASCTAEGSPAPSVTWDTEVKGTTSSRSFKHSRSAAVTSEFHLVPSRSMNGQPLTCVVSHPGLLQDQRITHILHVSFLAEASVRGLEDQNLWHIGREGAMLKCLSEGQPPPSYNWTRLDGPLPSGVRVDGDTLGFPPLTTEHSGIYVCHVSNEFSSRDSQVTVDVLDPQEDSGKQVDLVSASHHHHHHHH

T2: monkey cNectin-4 protein (ACRO, NE4-C52H4) (cynomolgus monkey, UniProt A0A2K5WES1 32-349)
T2 construct: bought; construct not described; also called cynomolgus monkey Nectin-4
T2 sequence: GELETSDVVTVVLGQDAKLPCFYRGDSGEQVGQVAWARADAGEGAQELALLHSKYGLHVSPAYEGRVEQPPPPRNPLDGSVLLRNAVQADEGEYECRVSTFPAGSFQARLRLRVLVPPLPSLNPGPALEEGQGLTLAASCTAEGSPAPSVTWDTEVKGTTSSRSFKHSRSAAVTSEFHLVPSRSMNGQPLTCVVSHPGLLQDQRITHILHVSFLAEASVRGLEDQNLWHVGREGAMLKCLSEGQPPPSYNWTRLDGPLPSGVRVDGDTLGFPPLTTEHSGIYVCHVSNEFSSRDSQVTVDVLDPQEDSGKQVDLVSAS

T3: mouse mNectin-4 protein (ACRO, NE4-M52H3) (mouse, UniProt Q8R007 31-347)
T3 construct: bought; construct not described; also called mouse Nectin-4
T3 sequence (looked up): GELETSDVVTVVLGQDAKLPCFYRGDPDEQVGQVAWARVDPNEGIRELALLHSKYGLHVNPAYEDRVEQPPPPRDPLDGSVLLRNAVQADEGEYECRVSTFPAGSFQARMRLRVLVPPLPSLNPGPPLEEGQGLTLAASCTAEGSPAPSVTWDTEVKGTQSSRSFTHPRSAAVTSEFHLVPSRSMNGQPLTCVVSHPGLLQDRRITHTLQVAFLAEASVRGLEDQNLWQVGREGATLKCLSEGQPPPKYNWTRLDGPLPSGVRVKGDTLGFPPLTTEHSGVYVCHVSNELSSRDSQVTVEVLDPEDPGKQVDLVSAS

T4: human Nectin-4, full length on cells (human, UniProt Q96NY8 32-510)
T4 construct: whole, on cells; T-47D cells positive for Nectin-4 expression; also called Nectin-4 on T-47D cells; CHO-Nectin-4
T4 sequence (looked up): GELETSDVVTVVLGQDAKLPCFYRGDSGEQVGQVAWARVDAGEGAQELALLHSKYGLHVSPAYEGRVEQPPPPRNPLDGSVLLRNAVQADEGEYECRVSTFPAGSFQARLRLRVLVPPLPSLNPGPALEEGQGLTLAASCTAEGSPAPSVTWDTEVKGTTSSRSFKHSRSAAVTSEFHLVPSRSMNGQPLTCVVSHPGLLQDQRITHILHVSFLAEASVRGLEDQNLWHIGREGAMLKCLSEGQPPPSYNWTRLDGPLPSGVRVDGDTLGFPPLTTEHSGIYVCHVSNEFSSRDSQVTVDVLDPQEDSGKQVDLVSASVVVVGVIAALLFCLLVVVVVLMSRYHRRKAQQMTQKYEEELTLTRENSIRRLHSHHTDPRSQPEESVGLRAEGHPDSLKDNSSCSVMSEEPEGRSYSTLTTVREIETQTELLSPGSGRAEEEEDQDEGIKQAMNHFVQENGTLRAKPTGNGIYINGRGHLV


Experiments:
[1] = biological target: T1, human Nectin-4 extracellular antigen …; experiment: ELISA, coated antigen
[2] = biological target: T2, monkey cNectin-4 protein (ACRO, …); experiment: ELISA, coated antigen
[3] = biological target: T3, mouse mNectin-4 protein (ACRO, …); experiment: ELISA, coated antigen
[4] = biological target: T1, human Nectin-4 extracellular antigen …; experiment: ELISA, coated hNectin-4-His
Text: (§1) The binding activity of the antibodies was detected by ELISA.

[5] = biological target: T1, human Nectin-4 extracellular antigen …; experiment: ELISA, coated hNectin-4-His; remark: listed apart in the source
Text: as §1

[6] = biological target: T1, human Nectin-4 extracellular antigen …; experiment: ELISA, coated hNectin-4-His; remark: listed apart in the source
Text: as §1

[7] = biological target: T4, human Nectin-4, full length on cells; experiment: flow cytometry on T-47D cells
Description: In this study, the binding activity of different antibodies to T-47D cells positive for Nectin-4 expression was detected by FACS, and the EC₅₀ for the binding of antibodies to the cells was analyzed by a four-parameter method. The procedures are briefly described as follows: T-47D cells (the Cell Bank of Chinese Academy of Sciences, TCHu 87) were trypsinized; the antibodies were serially diluted and co-incubated with T-47D cells at 4° C. for 0.5-1 h, followed by the addition of the secondary PE-labeled anti-human Fc antibody (Invitrogen, 12-4998-82); the signal intensity of red fluorescence was detected on a flow cytometer, and curves were plotted using Graphpad Prism and the EC₅₀ was calculated.

[8] = biological target: T1, human Nectin-4 extracellular antigen …; experiment: SPR, antibody on Protein A chip, 1:1 fit
Text: (§2) In this study, the affinity of the antibodies for the human Nectin-4 extracellular antigen was detected by surface plasmon resonance (SPR) technique (BIAcore: GE Healthcare, T200).

[9] = biological target: T1, human Nectin-4 extracellular antigen …; experiment: SPR, antibody on Protein A chip, hNectin-4-His analyte, 1:1 fit
Text: as §2

[10] = biological target: T4, human Nectin-4, full length on cells; experiment: flow cytometry, T-47D cells, antibody bound on ice, 0 h at 37 C
Description: (§3) In this assay, the relative amount of antibodies remaining on the cell surface after co-incubation at 37° C. for a certain period of time was detected by FACS to reflect the endocytosis efficiency. The procedures are briefly described as follows: T-47D cells (human ductal breast cancer cells, derived from the Cell Bank of Chinese Academy of Sciences, Cat.No. TCHu 87); the antibodies of interest were adjusted to 10 µg/mL and co-incubated with the cells on ice for 1 h; the cells were washed 3 times with pre-cooled PBS, and then placed at 37° C. and incubated for 0 h, 2 h and 4 h; 0.2% N₃Na was added to stop the endocytosis reaction; the cells were washed with PBS thrice, followed by the addition of the PE-labeled anti-human Fc secondary antibody (Invitrogen 12-4998-82); the cells were incubated at 4° C. for 30 min; the red fluorescence signal was detected on a flow cytometer.

[11] = biological target: T4, human Nectin-4, full length on cells; experiment: as above; remark: listed apart in the source
Description: as §3

[12] = biological target: T1, human Nectin-4 extracellular antigen …; experiment: SPR (BIAcore T200): antibody captured on a Protein A chip, hNectin-4-His injected at 0-100 nM, 1:1 fit. The sheet prints no unit; M is taken from the column head of Table 12 for the same fits. Table 12 prints 6.03E-09 for ASG-22, so the sheet's number differs from the text.
Text: as §2

[13] = biological target: T1, human Nectin-4 extracellular antigen …; experiment: ELISA, coated antigen; remark: listed apart in the source
Text: as §1
In this assay, the binding of different antibodies to human Nectin-4 homologous proteins hNectin-1 (ACRO, PV1-H5223), hNectin-2 (ACRO, PV2-H52E2), hNectin-3 (ACRO, PV3-H52E4), and hNectin-4-His was detected by ELISA to determine the specificity of the antibodies. For the methodology and procedures, see Example 4. Antigens of interest ([…]) were immobilized; after blocking, serially diluted antibodies (2-fold serially diluted from […]) were added, and HRP-labeled anti-human-Kappa secondary antibody was added for chromogenic reaction.

Row | EC50 [1] [µg/mL] | EC50 [2] [µg/mL] | EC50 [3] [µg/mL] | EC50 [4] [µg/mL] | EC50 [5] [µg/mL] | EC50 [6] | EC50 [7] | Kd [8] | koff [8] | kon [8] | Kd [9] [nM] | koff [9] [s⁻¹] | kon [9] [M⁻¹ s⁻¹] | MFI (mean fluorescence intensity) 0 h [10] [MFI] | MFI (mean fluorescence intensity) 0 h [11] [MFI] | Kd [12] [nM] | EC50 [13] [µg/mL] | Binder
1 | 0.035 | 0.033 | 1.23 | 0.042 | 0.019 | 0.042 µg/mL and 0.046 µg/mL | 0.118 µg/mL and 0.788 nM | 10.1 nM and 10.9 nM | 0.00581 s⁻¹ and 0.0059 s⁻¹ | 577000 M⁻¹ s⁻¹ and 540000 M⁻¹ s⁻¹ | 6.03 | 0.00436 | 723000 | 107000 | 58600 | 6.68 | – | reference antibody ASG-22 (antibody, human IgG1, kappa, V domains shown) VH: EVQLVESGGGLVQPGGSLRLSCAASGFTFSSYNMNWVRQAPGKGLEWVSYISSSSSTIYYADSVKGRFTISRDNAKNSLSLQMNSLRDEDTAVYYCARAYYYGMDVWGQGTLVTVSS VL: DIQMTQSPSSVSASVGDRVTITCRASQGISGWLAWYQQKPGKAPKFLIYAASTLQSGVPSRFSGSGSGTDFTLTISSLQPEDFATYYCQQANSFPPTFGGGTKVEIKR
2 | 0.037 | 0.042 | 0.037 | 0.068 | – | – | 0.186 µg/mL and 1.24 nM | – | – | – | 2.1 | 0.000867 | 413000 | 105000 | – | – | 0.062 | antibody 3A10 (antibody, human IgG1, kappa, V domains shown) VH: not shown VL: DIQMTQSPSSLSASVGDRVTITCRASQGISSYLAWYQQKPGKAPKLLIYAASSLQSGVPSRFSGSGSGTDFTLTISSLQPEDFATYYCQQHYTTPPTFGQGTKVEIKR
